Measurements reported in article PMC7688343, “GDF6-CD99 Signaling Regulates Src and Ewing Sarcoma Growth” (Cell reports, 2020).

Key:
Test in all cases: MST; CD99-Fc labelled with RED-NHS 2nd generation, in PBS/0.005% Tween-20; GDF6 prodomain from transfected 293T cells serially diluted in Opti-MEM; 30 minutes at room temperature; Monolith NT.115
Settings in all cases: one partner purified
[1] = target: T1, GDF6 A249E prodomain (UniProt Q6KF10 23-335, A249E)
T1 construct: signal peptide in the construct; GDF6 prodomain with the Klippel-Feil syndrome mutation A249E; limits as stated for the wild type in the same sentence (residue 1-335); Construct of the microscale thermophoresis; mutation recurrent in Klippel-Feil syndrome patients
T1 sequence (looked up): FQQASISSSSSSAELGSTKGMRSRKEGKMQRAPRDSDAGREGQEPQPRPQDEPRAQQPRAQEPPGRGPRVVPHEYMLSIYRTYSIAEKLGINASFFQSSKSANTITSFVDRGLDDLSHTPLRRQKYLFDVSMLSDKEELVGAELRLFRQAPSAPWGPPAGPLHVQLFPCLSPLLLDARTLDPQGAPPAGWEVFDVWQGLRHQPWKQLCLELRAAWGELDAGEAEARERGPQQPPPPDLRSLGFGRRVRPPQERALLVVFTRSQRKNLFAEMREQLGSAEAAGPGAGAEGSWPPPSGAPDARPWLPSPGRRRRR

[2] = target: T2, GDF6 prodomain (residue 1 - 335) (UniProt Q6KF10 23-335)
T2 construct: signal peptide in the construct; GDF6 (BMP13) prodomain, residue 1-335; Construct of the microscale thermophoresis; no tag and no purification are stated; also called wild-type GDF6 prodomain
T2 sequence (looked up): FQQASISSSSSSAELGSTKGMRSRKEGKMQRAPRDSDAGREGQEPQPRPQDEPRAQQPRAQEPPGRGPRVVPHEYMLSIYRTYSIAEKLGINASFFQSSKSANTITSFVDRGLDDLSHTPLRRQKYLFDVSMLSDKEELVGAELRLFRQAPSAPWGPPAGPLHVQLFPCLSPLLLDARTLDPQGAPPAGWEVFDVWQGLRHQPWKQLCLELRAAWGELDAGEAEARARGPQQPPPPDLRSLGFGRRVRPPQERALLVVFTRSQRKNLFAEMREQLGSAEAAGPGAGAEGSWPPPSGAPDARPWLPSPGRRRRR

[3] = target: T3, GDF6 L289P prodomain (UniProt Q6KF10 23-335, L289P)
T3 construct: signal peptide in the construct; GDF6 prodomain with the Klippel-Feil syndrome mutation L289P; limits as stated for the wild type in the same sentence (residue 1-335); Construct of the microscale thermophoresis; mutation recurrent in Klippel-Feil syndrome patients
T3 sequence (looked up): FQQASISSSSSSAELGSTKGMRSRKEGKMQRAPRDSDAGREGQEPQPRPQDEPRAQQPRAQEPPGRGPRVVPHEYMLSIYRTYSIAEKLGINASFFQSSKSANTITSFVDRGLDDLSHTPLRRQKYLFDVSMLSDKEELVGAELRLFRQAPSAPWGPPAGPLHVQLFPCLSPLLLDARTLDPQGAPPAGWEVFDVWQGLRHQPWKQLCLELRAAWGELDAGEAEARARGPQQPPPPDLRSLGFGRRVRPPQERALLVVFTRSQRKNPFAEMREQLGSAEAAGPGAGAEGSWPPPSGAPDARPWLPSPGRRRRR

- Kd [1]: 3.34 nM
- Kd [2]: 17.2 nM
- Kd [3]: 2.26 nM
B1: Recombinant human CD99-Fc fusion protein (residue 23 - 122) (Fc fusion, UniProt P14209 23-122, looked up)
chain: DGGFDLSDALPDNENKKPTAIPKKPSAGDDFDLGDAVVDGENDDPRPPNPPKPMPNPNPNHPSSSGSFSDADLADGVSGGEGKGGSDGGGSHRKEGEEAD
modifications: RED-NHS 2nd generation dye, amine reactive (labelled for the microscale thermophoresis only)
notes: The source is stated for the MST; the protein A Sepharose pull-down names the same limits and tag but no source; source: bought: R&D Systems (3968-CD-050); not shown: Fc, C-terminal, kept
